# Data from paper PMC4678028, “Oligomerization of Baculovirus LEF-11 Is Involved in Viral DNA Replication” (PLoS ONE, 2015).
# Target: T1, BmNPV late expression factor 11 (LEF-11), cMYC- or FLAG-tagged (Bombyx mori nucleopolyhedrovirus (BmNPV)), O92404
# T1 chain: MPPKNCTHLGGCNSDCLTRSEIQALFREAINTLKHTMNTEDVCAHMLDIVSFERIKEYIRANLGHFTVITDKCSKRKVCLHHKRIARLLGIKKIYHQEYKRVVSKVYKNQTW
# Test: non-reducing SDS-PAGE with western blot; lysate of BmN-SWU1 cells transfected with pIZ-LEF11^cMYC, 72 h.p.t.; loading buffer without β-mercaptoethanol; 12% SDS-PAGE; anti-cMYC blot
# Conditions: remark: other sources report otherwise
row,Binder,stoichiometry N
1,"BmNPV late expression factor 11 (LEF-11), cMYC- or FLAG-tagged, O92404 1-112 (natural protein) MPPKNCTHLGGCNSDCLTRSEIQALFREAINTLKHTMNTEDVCAHMLDIVSFERIKEYIRANLGHFTVITDKCSKRKVCLHHKRIARLLGIKKIYHQEYKRVVSKVYKNQTW",4

# Target: the molecule itself
# Test: non-reducing SDS-PAGE with western blot; lysates of BmN-SWU1 cells transfected with pIZ-DsRed-LEF11 truncation or point mutant plasmids; loading buffer without β-mercaptoethanol; anti-DsRed blot
# Conditions: not given
row,Binder,stoichiometry N
1,"pIZ-DsRed-LEF11-Y58E&I59E (natural protein, LEF-11 of BmNPV with Y58E and I59E; Probably the whole LEF-11 as in pIZ-DsRed-LEF11; also called YE58&I59E; source: BmN-SWU1 cells, transfected, in lysate; not shown: DsRed, N-terminal, kept) MPPKNCTHLGGCNSDCLTRSEIQALFREAINTLKHTMNTEDVCAHMLDIVSFERIKEEERANLGHFTVITDKCSKRKVCLHHKRIARLLGIKKIYHQEYKRVVSKVYKNQTW",2
2,"pIZ-DsRed-LEF11-I55E (natural protein, LEF-11 of BmNPV with I55E; Probably the whole LEF-11 as in pIZ-DsRed-LEF11; source: BmN-SWU1 cells, transfected, in lysate; not shown: DsRed, N-terminal, kept) MPPKNCTHLGGCNSDCLTRSEIQALFREAINTLKHTMNTEDVCAHMLDIVSFEREKEYIRANLGHFTVITDKCSKRKVCLHHKRIARLLGIKKIYHQEYKRVVSKVYKNQTW",2
3,"pIZ-DsRed-LEF11-L88E&L89E (natural protein, LEF-11 of BmNPV with L88E and L89E; Probably the whole LEF-11 as in pIZ-DsRed-LEF11; source: BmN-SWU1 cells, transfected, in lysate; not shown: DsRed, N-terminal, kept) MPPKNCTHLGGCNSDCLTRSEIQALFREAINTLKHTMNTEDVCAHMLDIVSFERIKEYIRANLGHFTVITDKCSKRKVCLHHKRIAREEGIKKIYHQEYKRVVSKVYKNQTW",2
4,"pIZ-DsRed-LEF11-I85E (natural protein, LEF-11 of BmNPV with I85E; Probably the whole LEF-11 as in pIZ-DsRed-LEF11; source: BmN-SWU1 cells, transfected, in lysate; not shown: DsRed, N-terminal, kept) MPPKNCTHLGGCNSDCLTRSEIQALFREAINTLKHTMNTEDVCAHMLDIVSFERIKEYIRANLGHFTVITDKCSKRKVCLHHKREARLLGIKKIYHQEYKRVVSKVYKNQTW",2
5,"DsRed-LEF11 (2–61) (domain or fragment, LEF-11 of BmNPV, residues 2-61; source: BmN-SWU1 cells, transfected, in lysate; not shown: DsRed, N-terminal, kept) PPKNCTHLGGCNSDCLTRSEIQALFREAINTLKHTMNTEDVCAHMLDIVSFERIKEYIRA",2
6,"KCSKRKVCLHHKRIARLLGIKKIYHQEYKR (domain or fragment, source: BmN-SWU1 cells, transfected, in lysate; not shown: DsRed, N-terminal, kept) [DsRed-LEF11 (72–101)]",2
7,"KCSKRKVCLHHKRIARLLGIKKIYHQEYKRVVSKVYKNQTW (domain or fragment, LEF-11 of BmNPV, residues 72-112; source: BmN-SWU1 cells, transfected, in lysate; not shown: DsRed, N-terminal, kept) [DsRed-LEF11 (72–112)]",2
8,"TLKHTMNTEDVCAHMLDIVSFERIKEYIRA (domain or fragment, LEF-11 of BmNPV, residues 32-61; source: BmN-SWU1 cells, transfected, in lysate; not shown: DsRed, N-terminal, kept) [DsRed-LEF11 (32–61)]",2
9,"CNSDCLTRSEIQALFREAINTLKHTMNTEDVCAHMLDIVSFERIKEYIRA (domain or fragment, LEF-11 of BmNPV, residues 12-61; source: BmN-SWU1 cells, transfected, in lysate; not shown: DsRed, N-terminal, kept) [DsRed-LEF11 (12–61)]",2
10,"DsRed-LEF11 (62–112) (domain or fragment, LEF-11 of BmNPV, residues 62-112; source: BmN-SWU1 cells, transfected, in lysate; not shown: DsRed, N-terminal, kept) NLGHFTVITDKCSKRKVCLHHKRIARLLGIKKIYHQEYKRVVSKVYKNQTW",2
11,"PPKNCTHLGGCNSDCLTRSEIQALFREAINTLKHTMNTEDVCAHMLDIVS (domain or fragment, LEF-11 of BmNPV, residues 2-51; source: BmN-SWU1 cells, transfected, in lysate; not shown: DsRed, N-terminal, kept) [DsRed-LEF11 (2–51)]",2
12,"FERIKEYIRA (domain or fragment, LEF-11 of BmNPV, residues 52-61; source: BmN-SWU1 cells, transfected, in lysate; not shown: DsRed, N-terminal, kept) [DsRed-LEF11 (52–61)]",2
13,"VCAHMLDIVSFERIKEYIRA (domain or fragment, LEF-11 of BmNPV, residues 42-61; source: BmN-SWU1 cells, transfected, in lysate; not shown: DsRed, N-terminal, kept) [DsRed-LEF11 (42–61)]",2
14,"IQALFREAINTLKHTMNTEDVCAHMLDIVSFERIKEYIRA (domain or fragment, LEF-11 of BmNPV, residues 22-61; source: BmN-SWU1 cells, transfected, in lysate; not shown: DsRed, N-terminal, kept) [DsRed-LEF11 (22–61)]",2
